The values that follow come from patent US20230407373A1 (priority 2020, published 2023).

Read-outs that look alike come from different tables or passages of the source.

Common to all, as to assay type: binding
In one assay the test system is SARS-CoV-2 gRNA. The note with it: […]; LC-MS/MS; Probe I sample (first 199 lines of Table 2).
In another assay the test system is gRNA of HCoV-OC43. The note with it: type n_48_v: 48 hours post-infection; for target (spectral count, OC43 Probe I RNP capture): infected cells, unweighted spectral count; for background (spectral count, no-probe control): no-probe control on infected cells.
The next assay concerns HCoV-OC43 gRNA and sgRNA. Particulars: for target (unweighted spectral count, OC43 Probe II capture): type n_36_v, FDR<10%; for target (unweighted spectral count, OC43 Probe II capture) / target (unweighted spectral count): tested against no-probe control; for target (unweighted spectral count, OC43 Probe II) / background (unweighted spectral count, no-probe control): type n_48_v, 48 hpi; for target (unweighted spectral count, OC43 Probe II): OC43 Probe II capture on infected cells; for background (unweighted spectral count, no-probe control): no-probe control on infected cells; for target (unweighted spectral count): OC43 Probe II, infected cells.

In assay [1] the test system is SARS-CoV-2 gRNA and sgRNAs. Particulars: for target (unweighted spectral count in RNP capture): Probe II capture, LC-MS/MS LFQ; for background (unweighted spectral count in control): no-probe control pull-down, used as background for Probe II.

B1: SAFB: host protein, UniProt Q15424 (protein, UniProt Q15424 2-915, looked up)
Scaffold attachment factor B1: AETLSGLGDSGAAGAAALSSASSETGTRRLSDLRVIDLRAELRKRNVDSSGNKSVLMERLKKAIEDEGGNPDEIEITSEGNKKTSKRSSKGRKPEEEGVEDNGLEENSGDGQEDVETSLENLQDIDIMDISVLDEAEIDNGSVADCVEDDDADNLQESLSDSRELVEGEMKELPEQLQEHAIEDKETINNLDTSSSDFTILQEIEEPSLEPENEKILDILGETCKSEPVKEESSELEQPFAQDTSSVGPDRKLAEEEDLFDSAHPEEGDLDLASESTAHAQSSKADSLLAVVKREPAEQPGDGERTDCEPVGLEPAVEQSSAASELAEASSEELAEAPTEAPSPEARDSKEDGRKFDFDACNEVPPAPKESSTSEGADQKMSSPEDDSDTKRLSKEEKGRSSCGRNFWVSGLSSTTRATDLKNLFSKYGKVVGAKVVTNARSPGARCYGFVTMSTAEEATKCINHLHKTELHGKMISVEKAKNEPVGKKTSDKRDSDGKKEKSSNSDRSTNLKRDDKCDRKDDAKKGDDGSGEKSKDQDDQKPGPSERSRATKSGSRGTERTVVMDKSKGVPVISVKTSGSKERASKSQDRKSASREKRSVVSFDKVKEPRKSRDSESHSRVRERSEREQRMQAQWEREERERLEIARERLAFQRQRLERERMERERLERERMHVEHERRREQERIHREREELRRQQELRYEQERRPAVRRPYDLDRRDDAYWPEAKRAALDERYHSDFNRQDRFHDFDHRDRGRYPDHSVDRREGSRSMMGEREGQHYPERHGGPERHGRDSRDGWGGYGSDKRMSEGRGLPPPPRRDWGDHGRREDDRSWQGTADGGMMDRDHKRWQGGERSMSGHSGPGHMMNRGGMSGRGSFAPGGASRGHPIPHGGMQGGFGGQSRGSRPSDARFTRRY
In the case of B1, the “target (unweighted spectral count of the protein in the RNP capture)” value with SARS-CoV-2 gRNA is recorded as 20. Besides, in the assay on gRNA of HCoV-OC43, the “target (spectral count, OC43 Probe I RNP capture)” value is 11 and the “background (spectral count, no-probe control)” value worked out at 1. Further, the “target (unweighted spectral count, OC43 Probe II capture)” value in the assay on HCoV-OC43 gRNA and sgRNA (36 hpi) turned out to be 7. Besides, in the assay with HCoV-OC43 gRNA and sgRNA, the “target (unweighted spectral count, OC43 Probe II)” value is reported as 9 and the “background (unweighted spectral count, no-probe control)” value is reported as 1. In the assay with HCoV-OC43 gRNA and sgRNA (type s_36_m, HCoV-OC43-infected HCT-8 cells, 36 hpi, Probe II), the “target (spectral count)” value stood at 7. Besides, the “background (spectral count)” value in the assay on HCoV-OC43 gRNA and sgRNA (type s_36_m, uninfected-probe control, 36 hpi, Probe II) came to 1. Besides, in assay [1], the “target (unweighted spectral count in RNP capture)” value is given as 11 and the “background (unweighted spectral count in control)” value turned out to be 1.

B2: SSBP1 (protein, UniProt Q04837 17-148, looked up)
Single-stranded DNA-binding …: ESETTTSLVLERSLNRVHLLGRVGQDPVLRQVEGKNPVTIFSLATNEMWRSGDSEVYQLGDVSQKTTWHRISVFRPGLRDVAYQYVKKGSRIYLEGKIDYGEYMDKNNVRRQATTIIADNIIFLSDQTKEKE
Regarding B2, the “target (unweighted spectral count of the protein in the RNP capture)” value in the assay on SARS-CoV-2 gRNA was 14. Besides, in the assay on gRNA of HCoV-OC43, the “target (spectral count, OC43 Probe I RNP capture)” value is reported as 16 and the “background (spectral count, no-probe control)” value is listed as 3. Also, the “target (unweighted spectral count, OC43 Probe II capture)” value in the assay on HCoV-OC43 gRNA and sgRNA (36 hpi) is listed as 12. Moreover, in the assay on HCoV-OC43 gRNA and sgRNA (12 hpi (type n_12_v)), the “target (unweighted spectral count)” value is reported as 44. In addition, the “target (unweighted spectral count)” value with HCoV-OC43 gRNA and sgRNA (24 hpi (type n_24_v)) was found to be 25. Besides, in the assay with HCoV-OC43 gRNA and sgRNA, the “target (unweighted spectral count, OC43 Probe II)” value was 14 and the “background (unweighted spectral count, no-probe control)” value was found to be 3. Also, in assay [1], the “target (unweighted spectral count in RNP capture)” value was 7 and the “background (unweighted spectral count in control)” value turned out to be 1.
